Experimental data taken from patent US20190330359A1.

Molecular target: TNFR2 (human TNFR2, SEQ ID NO: 1) (human) (UniProt P20333)
Test: surface plasmon resonance (Pioneer SensiQ)

- Kd: 0.621 nM
Substance: Clone MAB726 (R&D Systems, Inc.) anti-TNFR2 antagonist monoclonal antibody
